According to publication PMC7550751, “Application of Force to a Syndecan-4 Containing Complex With Thy-1–αVβ3 Integrin Accelerates Neurite Retraction” (Frontiers in Molecular Biosciences, 2020):

Assays:
[1] = biological target: T1, Recombinant αVβ3-Fc integrin (UniProt P06756 31-992; P05106 27-718); test: zero force, optical tweezers, with TRAIL-R2-Fc control on the bead
T1 chain 1: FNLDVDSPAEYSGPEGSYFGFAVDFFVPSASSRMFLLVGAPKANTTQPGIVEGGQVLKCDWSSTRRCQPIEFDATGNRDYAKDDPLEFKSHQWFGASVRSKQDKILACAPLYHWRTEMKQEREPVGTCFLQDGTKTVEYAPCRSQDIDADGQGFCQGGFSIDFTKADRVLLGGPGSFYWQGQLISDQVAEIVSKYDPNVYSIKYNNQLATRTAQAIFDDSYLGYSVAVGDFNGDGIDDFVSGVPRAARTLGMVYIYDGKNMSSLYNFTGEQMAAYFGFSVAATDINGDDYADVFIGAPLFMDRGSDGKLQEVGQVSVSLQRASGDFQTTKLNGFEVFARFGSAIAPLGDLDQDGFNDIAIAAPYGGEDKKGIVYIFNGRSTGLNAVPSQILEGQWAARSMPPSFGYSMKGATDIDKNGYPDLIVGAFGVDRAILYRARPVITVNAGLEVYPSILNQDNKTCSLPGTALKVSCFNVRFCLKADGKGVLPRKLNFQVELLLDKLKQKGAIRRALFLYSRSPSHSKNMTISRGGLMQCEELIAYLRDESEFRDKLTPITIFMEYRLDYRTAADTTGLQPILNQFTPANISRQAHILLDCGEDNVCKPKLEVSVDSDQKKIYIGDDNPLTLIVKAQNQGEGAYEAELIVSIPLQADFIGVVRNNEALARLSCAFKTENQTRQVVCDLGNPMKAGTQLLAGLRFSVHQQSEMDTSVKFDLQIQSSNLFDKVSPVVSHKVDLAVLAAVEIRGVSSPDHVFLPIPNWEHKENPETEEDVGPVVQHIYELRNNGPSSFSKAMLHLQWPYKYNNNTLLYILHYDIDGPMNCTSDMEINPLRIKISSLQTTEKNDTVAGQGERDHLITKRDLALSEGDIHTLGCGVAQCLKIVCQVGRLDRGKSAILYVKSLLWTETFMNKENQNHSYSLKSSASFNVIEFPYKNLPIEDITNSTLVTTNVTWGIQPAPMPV
T1 chain 2: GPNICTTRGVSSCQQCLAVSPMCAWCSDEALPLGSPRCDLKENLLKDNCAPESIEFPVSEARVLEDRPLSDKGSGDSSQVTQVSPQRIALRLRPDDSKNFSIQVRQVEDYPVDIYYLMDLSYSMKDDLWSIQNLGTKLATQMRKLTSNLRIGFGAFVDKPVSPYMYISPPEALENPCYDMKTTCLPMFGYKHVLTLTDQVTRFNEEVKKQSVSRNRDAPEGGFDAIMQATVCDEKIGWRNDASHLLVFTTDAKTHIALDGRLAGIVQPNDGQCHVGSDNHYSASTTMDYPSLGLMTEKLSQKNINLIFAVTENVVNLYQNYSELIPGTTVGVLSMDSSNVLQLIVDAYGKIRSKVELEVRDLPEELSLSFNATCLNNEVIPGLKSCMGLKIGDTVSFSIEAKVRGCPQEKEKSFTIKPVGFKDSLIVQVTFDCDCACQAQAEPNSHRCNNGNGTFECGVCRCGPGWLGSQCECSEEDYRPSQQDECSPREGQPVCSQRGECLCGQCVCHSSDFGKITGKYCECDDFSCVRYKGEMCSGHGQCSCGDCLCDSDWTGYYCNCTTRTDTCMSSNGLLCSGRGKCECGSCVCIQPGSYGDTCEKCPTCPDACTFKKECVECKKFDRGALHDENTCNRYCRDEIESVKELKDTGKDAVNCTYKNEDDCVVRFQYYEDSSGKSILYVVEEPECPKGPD

[2] = biological target: T2, Commercially purified human Syndecan (ectodomain)-4-Fc (human, UniProt P31431 19-145); test: as above
T2 chain: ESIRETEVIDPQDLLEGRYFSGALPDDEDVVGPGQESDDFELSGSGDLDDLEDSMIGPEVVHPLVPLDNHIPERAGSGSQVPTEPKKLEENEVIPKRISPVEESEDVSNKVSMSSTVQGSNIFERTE

[3] = biological target: T3, αVβ3-Fc + Syndecan-4-Fc (both on one bead) ( | human, UniProt P06756 31-992; P05106 27-718; P31431 19-145); test: zero force, optical tweezers, both αvβ3-Fc and Syndecan-4-Fc on the bead
T3 chain 1: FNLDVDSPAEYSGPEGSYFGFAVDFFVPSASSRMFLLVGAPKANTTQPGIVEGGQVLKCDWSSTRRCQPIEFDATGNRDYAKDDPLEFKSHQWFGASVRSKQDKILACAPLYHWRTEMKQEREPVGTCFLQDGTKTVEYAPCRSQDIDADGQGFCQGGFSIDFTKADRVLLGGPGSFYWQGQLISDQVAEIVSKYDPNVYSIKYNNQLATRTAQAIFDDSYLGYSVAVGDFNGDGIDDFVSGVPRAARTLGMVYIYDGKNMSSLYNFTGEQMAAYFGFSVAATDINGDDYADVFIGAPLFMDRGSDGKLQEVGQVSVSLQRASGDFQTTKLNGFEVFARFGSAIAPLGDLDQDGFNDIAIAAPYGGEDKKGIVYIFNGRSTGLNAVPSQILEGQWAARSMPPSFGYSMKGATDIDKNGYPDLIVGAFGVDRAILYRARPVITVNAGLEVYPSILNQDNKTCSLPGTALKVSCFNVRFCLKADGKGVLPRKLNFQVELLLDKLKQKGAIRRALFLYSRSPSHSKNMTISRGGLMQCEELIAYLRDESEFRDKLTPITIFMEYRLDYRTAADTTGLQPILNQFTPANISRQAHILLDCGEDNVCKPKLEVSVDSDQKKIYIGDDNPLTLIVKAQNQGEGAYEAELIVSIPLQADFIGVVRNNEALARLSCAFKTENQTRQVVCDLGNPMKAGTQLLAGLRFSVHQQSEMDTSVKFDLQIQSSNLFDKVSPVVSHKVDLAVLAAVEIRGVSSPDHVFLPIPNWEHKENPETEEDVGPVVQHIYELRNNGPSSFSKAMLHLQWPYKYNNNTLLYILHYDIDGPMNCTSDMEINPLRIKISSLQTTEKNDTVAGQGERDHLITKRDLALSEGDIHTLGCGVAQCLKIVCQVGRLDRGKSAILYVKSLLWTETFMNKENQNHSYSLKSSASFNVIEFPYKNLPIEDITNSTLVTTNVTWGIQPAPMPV
T3 chain 2: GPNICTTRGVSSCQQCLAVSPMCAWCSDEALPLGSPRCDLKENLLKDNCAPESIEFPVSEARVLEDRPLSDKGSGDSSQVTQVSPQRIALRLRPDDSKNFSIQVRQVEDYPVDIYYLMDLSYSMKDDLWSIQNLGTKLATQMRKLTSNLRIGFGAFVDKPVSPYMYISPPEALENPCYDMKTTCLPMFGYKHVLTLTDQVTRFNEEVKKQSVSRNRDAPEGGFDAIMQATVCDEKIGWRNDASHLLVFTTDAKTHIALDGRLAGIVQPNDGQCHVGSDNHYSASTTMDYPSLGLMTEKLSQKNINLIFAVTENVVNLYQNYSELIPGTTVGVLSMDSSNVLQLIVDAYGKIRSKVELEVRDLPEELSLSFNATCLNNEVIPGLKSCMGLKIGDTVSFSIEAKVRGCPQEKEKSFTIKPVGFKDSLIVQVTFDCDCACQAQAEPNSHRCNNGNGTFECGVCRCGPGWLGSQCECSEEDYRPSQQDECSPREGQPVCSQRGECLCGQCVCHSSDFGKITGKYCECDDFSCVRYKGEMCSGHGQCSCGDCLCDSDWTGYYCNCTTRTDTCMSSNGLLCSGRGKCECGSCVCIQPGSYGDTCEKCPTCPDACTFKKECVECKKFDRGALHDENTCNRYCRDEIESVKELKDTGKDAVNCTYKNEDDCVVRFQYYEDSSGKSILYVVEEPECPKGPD
T3 chain 3: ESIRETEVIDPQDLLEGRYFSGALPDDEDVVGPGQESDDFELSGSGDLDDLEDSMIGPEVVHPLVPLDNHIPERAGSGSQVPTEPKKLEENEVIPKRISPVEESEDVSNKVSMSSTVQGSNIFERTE

[4] = biological target: T1, Recombinant αVβ3-Fc integrin; test: zero force, optical tweezers
[5] = biological target: T2, Commercially purified human Syndecan …; test: zero force, optical tweezers

koff [1]: 0.15 s⁻¹
koff [2]: 0.28 s⁻¹
koff [3]: 0.08 s⁻¹
koff [4]: 0.14 s⁻¹
koff [5]: 0.32 s⁻¹
B1: Thy-1-Fc wild type (Fc fusion)
chain: QKVTSLTACLVNQNLRLDCRHENNTKDNSIQHEFSLTREKRKHVLSGTLGIPEHTYRSRVTLSNQPYIKVLTLANFTTKDEGDYFCELQVSGANPMSSNKSISVYRDKLVKC
